Measured values: US20240018256A1 (JUNO THERAPEUTICS, published 2024)
Values belong to the binder of their own block, whether it stands above or below them.

Assays:
[1] = biological target: T1, human CD19 (human, UniProt P15391 20-556); test: flow cytometry on CD19-expressing cells (n = 1)
T1 sequence: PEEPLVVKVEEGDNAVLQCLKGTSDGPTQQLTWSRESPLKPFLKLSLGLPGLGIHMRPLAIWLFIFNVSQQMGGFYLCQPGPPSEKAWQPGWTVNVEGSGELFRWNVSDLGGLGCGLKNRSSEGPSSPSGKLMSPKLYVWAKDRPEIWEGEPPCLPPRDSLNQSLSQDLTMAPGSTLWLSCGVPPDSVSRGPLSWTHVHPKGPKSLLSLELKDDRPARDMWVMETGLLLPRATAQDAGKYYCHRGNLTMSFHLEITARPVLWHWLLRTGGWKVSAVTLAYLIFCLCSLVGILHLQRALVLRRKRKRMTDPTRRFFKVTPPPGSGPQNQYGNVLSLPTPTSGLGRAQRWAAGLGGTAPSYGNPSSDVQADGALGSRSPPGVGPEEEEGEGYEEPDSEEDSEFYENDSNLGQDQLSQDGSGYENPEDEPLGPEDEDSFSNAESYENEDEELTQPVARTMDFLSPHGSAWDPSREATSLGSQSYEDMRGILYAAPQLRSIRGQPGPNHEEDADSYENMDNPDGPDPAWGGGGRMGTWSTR
Excerpt: Various clones were titrated and their binding affinity (EC50) to various CD19-expressing cells assessed by flow cytometry.

[2] = biological target: T1, human CD19; test: flow cytometry, HIS-tagged scFv bacterial supernatant on CD19-transfected HEK293 cells (FIG. 8A)
Excerpt: (§1) A third scFv library was generated by shuffling the VH sequences from the selection in (a) with the VL sequences resulting from the selection in (b). […] Binding by the selected scFv clones to CD19-expressing cells was confirmed by flow cytometry using bacterially-produced supernatant. The selected scFv pools were cloned into E. coli expression vectors and produced as HIS-tagged scFvs. Binding of individual clones to CD19-transfected HEK293 cells was detected with anti-HIS-Alexa647 conjugate by flow cytometry.

[3] = biological target: T1, human CD19; test: flow cytometry on CD19-expressing cells (n = 3)
[4] = biological target: T1, human CD19; test: flow cytometry competition for binding with FMC63 (n = 2)
[5] = biological target: T1, human CD19; test: flow cytometry, scFv titrated on CD19-expressing K562 cells (FIG. 4, another plate)
[6] = biological target: T1, human CD19; test: flow cytometry, scFv titrated on CD19-expressing K562 cells (FIG. 3A)
[7] = biological target: T1, human CD19; test: flow cytometry competition for binding with FMC63 (n = 3)
[8] = biological target: T1, human CD19; test: flow cytometry on CD19-expressing cells (n = 4)
[9] = biological target: T1, human CD19; test: flow cytometry, HIS-tagged scFv bacterial supernatant on CD19-transfected HEK293 cells (FIG. 8B)
Excerpt: as §1

[10] = biological target: T1, human CD19; test: flow cytometry competition for binding with FMC63 (n = 1)
[11] = biological target: T1, human CD19; test: flow cytometry, scFv titrated on CD19-expressing K562 cells (FIG. 4, one plate)

- EC50 [1]: 139 nM
B1: Clone 505 scFv (scFv)
scFv: EVQLVESGGGLVQPGRSLRLSCAASGFTFDDYAMHWVRQAPGKGLEWVSGISWNSGRIGYADSVKGRFTISRDNAKNSLFLQMNSLRAEDTAVYYCARDQGYHYYDSAEHAFDIWGQGTMVTVSSQSVLTQPRSLSGSPGQSVTIACTGASTDVGGYNYVSWYQQHPGKAPKLMIYDVNKRPSGVPDRFSGSKSGNTAFLTISGLQAEDEADYYCCSYAGSYTFEVFGGGTKLTVL

- binding result [2]: binds
B2: Clone 272 scFv (scFv)
scFv: EVQLVESGGGLVQPGRSLRLSCAASGFTFDDYAMHWVRQAPGKGLEWVSGISWNSGRIGYADSVKGRFTISRDNAKNSLFLQMNSLRAEDTAVYYCARDQGYHYYDSAEHAFDIWGQGTVVTVSSGGGGSGGGGSGGGGSQSVLTQPPSVSAAPGQKVTISCSGSSSNIGNNYVSWYQQLPGTAPKLLIYDNNKRPSGIPDRFSGSKSGTSATLGITGLQTGDEADYYCGTWDSSLNRDWVFGGGTKLTVL
notes: HIS- or FLAG-tagged

- EC50 [3]: 1.3 nM
- IC50 [4]: 3.9 nM
B3: Clone 1300 scFv (scFv)
scFv: QMQLVQSGGGLVQPGRSLRLSCAASGFTFDDYAMHWVRQAPGKGLEWVSGISWNSGSIGYADSVKGRFTISRDNAKNSLYLQMNSLRAEDTAVYYCARDQGYHYYDSAEHAFDIWGQGTVVTVSSGGGGSGGGGSGGGGSAIRMTQSPSTLSASVGDRVTITCRASQSISHYLAWYQQKPGKAPKLLIFDASRLASGVPSRFSGSGSGTDFTLTISSLQPEDFATYYCQQSYGAPMFTFGPGTRVDLK
notes: Human scFv

- EC50 [1]: 114 nM
- EC50 [5]: 114 nM
B4: Clone 184 scFv (scFv, V domains shown)
VH: QVQLVESGGGLVQPGRSLRLSCAASGFTFDDYAMHWVRQAPGKGLEWVSGISWNSGRIGYADSVKGRFTISRDNAKNSLFLQMNSLRAEDTAVYYCARDQGYHYYDSAEHAFDIWGQGTMVTVSS

- EC50 [6]: 12.8 nM
- EC50 [5]: 12 nM
B5: Clone 192 scFv (scFv)
scFv: EVQLVESGGGLVQPGRSLRLSCAASGFTFDDYAMHWVRQAPGKGLEWVSGISWNSGRIGYADSVKGRFTISRDNAKNSLFLQMNSLRAEDTAVYYCARDQGYHYYDSAEHAFDIWGQGTMVTVSSGGGGSGGGGSGGGGSQAVLTQPRSVSGSPGQSVTISCTGISSGVDSHRYVSWYQHHPGKAPKLMIYDFSKRPSGVPDRFSGSKSGNTASLTISGLQAEDEADYYCCSYAAISPNYVFGTGTKLTVL
notes: Human scFv

- EC50 [3]: 7.7 nM
- IC50 [7]: 15.7 nM
B6: Clone 192B scFv (scFv)
scFv: QVQLVESGGGLVQPGRSLRLSCAASGFTFDDYAMHWVRQAPGKGLEWVSGISWNSGRIGYADSVKGRFTISRDNAKNSLFLQMNSLRAEDTAVYYCARDQGYHYYDSAEHAFDIWGQGTMVTVSSGGGGSGGGGSGGGGSQAVLTQPRSVSGSPGQSVTISCTGISSGVDSHRYVSWYQHHPGKAPKLMIYDFSKRPSGVPDRFSGSKSGNTASLTISGLQAEDEADYYCSSYAAISPNYVFGTGTKLTVL
notes: Human scFv

- EC50 [3]: 31.8 nM
- IC50 [4]: 56.1 nM
B7: Clone 227 scFv (scFv)
scFv: EVQLVQSGGGLVQPGRSLRLSCAASGFTFDDYAMHWVRQAPGKGLEWVSGISWNSGSIGYADSVKGRFTISRDNAKNSLYLQMNSLRAEDTAVYYCARDQGYHYYDSAEHAFDIWGQGTVVTVSSGGGGSGGGGSGGGGSDIQLTQSPSTLSASVGDRVTITCRASQSISRWLAWYQQKPGKAPKLLIYDASNLETGVPSRFSGSGSGTDFTFTISSLQPEDIATYYCQQYDNLPLTFGGGTKVEIK
notes: Human scFv

- EC50 [8]: 2.5 nM
- IC50 [7]: 9.4 nM
B8: Clone 285 scFv (scFv)
scFv: EVQLVESGGGLVQPGRSLRLSCAASGFTFDDYAMHWVRQAPGKGLEWVSGISWNSGRIGYADSVKGRFTISRDNAKNSLFLQMNSLRAEDTAVYYCARDQGYHYYDSAEHAFDIWGQGTVVTVSSGGGGSGGGGSGGGGSQSALTQPASVSGSPGQSITISCTGTSSDLGGYNYVSWYQHRPGKAPKLIIYDVTVRPSGVSDRFSGSKSGNTASLTISGLQAEDEADYYCGSYTSSSTLLWVFGGGTKLTVL
notes: Human scFv

- binding result [2]: binds
B9: Clone 283 scFv (scFv)
scFv: QVQLVESGGGLVQPGRSLRLSCAASGFTFDDYAMHWVRQAPGKGLEWVSGISWNSGRIGYADSVKGRFTISRDNAKNSLFLQMNSLRAEDTAVYYCARDQGYHYYDSAEHAFDIWGQGTVVTVSSGGGGSGGGGSGGGGSQSALTQPASVSGSPGQSITISCTGTSSDLGGYNYVSWYQHRPGKAPKLIIYDVTVRPSGVSDRFSGSKSGNTASLTISGLQAEDEADYYCGSYTSSSTLLWVFGGGTKLTVL
notes: HIS- or FLAG-tagged

- binding result [9]: binds
B10: Clone 336 scFv (scFv)
scFv: QVQLVESGGGLVQPGRSLRLSCAASGFTFDDYAMHWVRQAPGKGLEWVSGISWNSGRIGYADSVKGRFTISRDNAKNSLFLQMNSLRAEDTAVYYCARDQGYHYYDSAEHAFDIWGQGTVVTVSSGGGGSGGGGSGGGGSQSALTQPASVSGSPGQSITISCTGTSSDLGGYNYVSWYQHRPGKAPKLIIYDVTVRPSGVSDRFSGSKSGNTASLTISGLQAEDEADYYCGSYTSSSTLLWVFGGGTKLTVL
notes: HIS- or FLAG-tagged

- binding result [9]: binds
B11: Clone 302 scFv (scFv)
scFv: QVQLVESGGGLVQPGRSLRLSCAASGFTFDDYAMHWVRQAPGKGLEWVSGISWNSGRIGYADSVKGRFTISRDNAKNSLFLQMNSLRAEDTAVYYCARDQGYHYYDSAEHAFDIWGQGTVVTVSSGGGGSGGGGSGGGGSQSALTQPASVSGSPGQSITISCTGTSSDLGGYNYVSWYQHRPGKAPKLIIYDVTVRPSGVSDRFSGSKSGNTASLTISGLQAEDEADYYCGSYTSSSTLLWVFGGGTKLTVL
notes: HIS- or FLAG-tagged

- EC50 [1]: 65.7 nM
- IC50 [10]: 102 nM
B12: Clone 79 scFv (scFv)
scFv: EVQLVESGGGLVQPGRSLRLSCAASGFTFDDYAMHWVRQAPGKGLEWVSGISWNSGRIGYADSVKGRFTISRDNAKNSLFLQMNSLRAEDTAVYYCARDQGYHYYDSAEHAFDIWGQGTVVTVSSGGGGSGGGGSGGGGSQSVLTQPPSVSAAPGQKVTISCSGSSSNIGNNYVSWYQQLPGTAPKLLIYDNNKRPSGIPDRFSGSKSGTSATLGITGLQTGDEGDYYCGTWDISLRFGVFGGGTKVTVL
notes: Human scFv

- EC50 [8]: 10.9 nM
- IC50 [10]: 32.9 nM
B13: Clone 328 scFv (scFv)
scFv: QVQLVESGGGLVQPGRSLRLSCAASGFTFDDYAMHWVRQAPGKGLEWVSGISWNSGRIGYADSVKGRFTISRDNAKNSLFLQMNSLRAEDTAVYYCARDQGYHYYDSAEHAFDIWGQGTVVTVSSGGGGSGGGGSGGGGSQSALTQPASVSGSPGHSITISCTGTRSDVGGFDYVSWYQHNPGKAPKLIIYDVTKRPSGVSNRFSGAKSGITASLTISGLQAEDEADYYCTSYRPGPTFVFGTGTKLTVL
notes: Human scFv

- EC50 [1]: 214 nM
- EC50 [11]: 214 nM
B14: Clone 1 scFv (scFv)
scFv: EVQLVESGGGLVQPGRSLRLSCAASGFTFDDYAMHWVRQAPGKGLEWVSGISWNSGRIGYADSVKGRFTISRDNAKNSLFLQMNSLRAEDTAVYYCARDQGYHYYDSAEHAFDIWGQGTMVTVSSGGGGSGGGGSGGGGSQSALTQPASVSGSPGQSITISCTGTSSDVGAYNFVSWYQQLPGTAPKFLIYDNNKRPPGIPDRFSGSKSGTSATLGITGLQTGDEADYYCATWDSGLSAVVFGGGTKLTVL
notes: Human scFv

- EC50 [1]: 179 nM
B15: Clone 506 scFv (scFv)
scFv: EVQLVESGGGLVQPGRSLRLSCAASGFTFDDYAMHWVRQAPGKGLEWVSGISWNSGRIGYADSVKGRFTISRDNAKNSLFLQMNSLRAEDTAVYYCARDQGYHYYDSAEHAFDIWGQGTMVTVSSGGGGSGGGGSGGGGSQLVLTQPPSVSGSPGQSVTFSCTGASSDVGGYDHVSWYQHHPGKGPKLLIYDVSKRPSGVPDRFSGSKSGNTASLTISGLQAEDEADYYCCSFAGYYTYWLFGGGTKVTVL
notes: Human scFv
